The supplement of paper PMC9170038

Tested on: MS2 coat protein
Test: apparent KD of MS2 coat protein; higher = weaker reporter binding
Details: Eterna round: R107
Summary of the method: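 Designed RNA switches, transcribed on-chip from Illumina sequencing clusters, were titrated with SNAP-549-labelled MS2 coat protein from 0.7 or 1.5 nM to 3 µM in twofold steps. The solution was 100 mM Tris-HCl pH 7.5, 80 mM KCl, 4 mM MgCl2, with constant ligand or without it. Apparent KD is the median over each design's normalised cluster binding-curve fits.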

[1] = input ligand: theophylline 20 uM
[2] = input ligand: theophylline 2 mM
[3] = input ligand: tryptophan 2.4 mM

Row | Sequence | apparent KD of MS2 coat protein (input ligand: arginine 13.2 mM) [nM] | apparent KD of MS2 coat protein (input ligand: none) [nM] | apparent KD of MS2 coat protein [1] [nM] | apparent KD of MS2 coat protein [2] [nM] | apparent KD of MS2 coat protein [3] [nM]
1 | GGUUGGUGUAGAGAUAUAUUGAUUACUGAAGGAGCGGGAACAAACCCAGGUAGGUCGCAGAGAUCCACAUGAGGAUCACCCAUGU [!0.N] | 35.2 | 31.6 | 58.3 | 39.3 | 41.5
2 | GGUUUGCGGCCUGAUACCAGUGAUGGAUGAACCCUAGUCAACAUGAGGAUCACCCAUGUUCACCCUUGGCAGCAGUGACGCUCGA [theeternabot_exclusion_MS2_Theo_B_34] | 43.2 | 69.7 | 78.7 | 354 | 74.1
3 | GUAAAGUAAAGAAGGAGCGUCGAAAAUGGGUAAACAUGAGGAUCACCCAUGUAAAGGGAACGACAGGUAGGUCGCUUUAUUUUAC [AstromonsSSArgB#17] | 86.7 | 199 | 223 | 284 | 189
4 | GUAAUUAUAAGAAGGAGCGUCGAAAAUGGGUAAACAUGAGGAUCACCCAUGUAAAGGGAACGACAGGUAGGUCGCUUAUGAUUAC [AstromonsSSArgB#22] | 76.5 | 185 | 164 | 274 | 202
5 | GUAAUUAUAAGAAGGAGCGUCGAAAAUGGGUAAACAUGAGGAUCACCCAUGUAAAGGGAACGACAGGUAGGUCGCUUAUGGUUAC [AstromonsSSArgB#24] | 99.2 | 200 | 245 | 305 | 214
6 | GUACAUGAGGAUCACCCAUGUAUAGUUGAAGGAGCGACCGGUGGGUCAGGUAGGUCGCAGCACAUGGCGUCAACCCGUGUAUGCC [#1 Exclusion - Arginine A Attempt #26 (Inspired by Pi)] | 18.1 | 17.6 | 26.7 | 22.1 | 17.2
7 | GUAUUAACAAAAGUUGAUACAGUGGGUGAACGAGGACCGGUACGGCCGCCACUCGGACAUGAGGAUCACCCAUGUCCAUGUGAAA [AstrosExyTryA#12] | 15.9 |  | 19.2 | 17.2 | 
8 | GUCCACAGCCGAAGGAGCGCUAGAAGAUGACAUGAGGAUCACCCAUGUGUGUGGUGUGGCUAGCAGGUAGGUCGCGGAGUGGAUU [Exclusion - Arginine B (Freestyle 15)] | 39.7 | 30.5 | 59.3 | 39 | 26.1
9 | GUCCGCAGCCGAAGGAGCGCUAGAAGGUGACAUGAGGAUCACCCAUGUGUGUGAUGUGGCUAGCAGGUAGGUCGCGGAGCGGAUU [Exclusion - Arginine B (Freestyle 18)] | 85.2 | 59.2 | 110 | 76.7 | 61.9
10 | GUCCUCAGCCGAAGGAGCGCUAGAAGGUGACAUGAGGAUCACCCAUGUGUGUGAUGUGGCUAGCAGGUAGGUCGCGGAGAGGAUU [Exclusion - Arginine B (Freestyle 17)] | 107 | 98.6 | 157 | 127 | 78.8
11 | GUCUUGGAAUCGGCCGCCACUACAUGAGGAUCACCCAUGUGGACAAAUAGGGUUUUUAAGCUCGGUAGGACCGGGAUUCGGACAU [Mamaon] | 12.3 | 14.3 | 15.9 | 18 | 66
12 | GUGUGGCGCUCGGCCGCCACUCAGACAUGAGGAUCACCCAUGUAGAACAUGAGGAUCACCCAUGUGAGGACCGGGAGACACACGA [Exclusion Tryptophan B GF11] | 164 | 288 | 288 | 404 | 308
13 | GUGUUAUGCUCGGCCGCCACUCUGACAUGAGGAUCACCCAUGUUGUACAUGAGGAUCACCCAUGUGAGGACCGGGAGAAACACGA [Exclusion Tryptophan B GF9] | 191 | 193 | 191 | 209 | 274
14 | UAAAAUAAAAGGGUGAAGGUAUAAACAGAUACCAGCCAGAUAACUGGCCCUUGGCAGCUGAAUGACAUGAGGAUCACCCAUGUCU [TheoAS 21 #OpenEnded #Ms2Late] | 13.1 |  | 17.7 |  | 14.5
15 | UAACAUGAGGAUCACCCAUGUAUACUAAGUCGAGGACCGGUACGGCCGCCACUCGAACUUCAAGAAUAGGCGGUAAAUGUAAGUA [JR_ExcTryptoA_Sub020] | 11.8 |  | 16.5 | 14 | 
16 | UACAUGAGGAUCACCCAUGUAUGAAUAGAUACCAGAUAAAAUAAGGUCCCUUGGCAGCUAGUGAAUCGAGGGUGGGUAUCAUGAU [#12 Exclusion-TheophyllineA] | 9.47 |  | 12.7 |  | 9.93
17 | UACAUGAGGAUCACCCAUGUGUAACCAGAAGGAGCGUGCGAAAGCACAGGUAGGUCGCUGGUGGGUUUAGGUUUAAUAGGUGUAU [SSAA NP+V+V2 #4 +-Same Structure] | 32.8 | 32.3 | 54.1 | 40.6 | 34.6
18 | UACUUGCUGACGGCCGCCACUAGAACAUGAGGAUCACCCAUGUAUCUAGUGGCAAUCCUCAUGACUAGGACCGGGUCAGCAAGAU [(Trp1)-(Ms2)-(T)'-(M)'-(Trp2)_Design1] | 8.26 |  | 10.4 | 9.58 | 
